Earlier results on one substance are cited in publication PMC12193198.

The term Kd denotes the constant that tells how readily two partners part at equilibrium.

The data set concerns the target transferrin receptor (TfR) (Homo sapiens) (UniProt P02786).

Chain of transferrin receptor (TfR) (Homo sapiens) (P02786 89-760): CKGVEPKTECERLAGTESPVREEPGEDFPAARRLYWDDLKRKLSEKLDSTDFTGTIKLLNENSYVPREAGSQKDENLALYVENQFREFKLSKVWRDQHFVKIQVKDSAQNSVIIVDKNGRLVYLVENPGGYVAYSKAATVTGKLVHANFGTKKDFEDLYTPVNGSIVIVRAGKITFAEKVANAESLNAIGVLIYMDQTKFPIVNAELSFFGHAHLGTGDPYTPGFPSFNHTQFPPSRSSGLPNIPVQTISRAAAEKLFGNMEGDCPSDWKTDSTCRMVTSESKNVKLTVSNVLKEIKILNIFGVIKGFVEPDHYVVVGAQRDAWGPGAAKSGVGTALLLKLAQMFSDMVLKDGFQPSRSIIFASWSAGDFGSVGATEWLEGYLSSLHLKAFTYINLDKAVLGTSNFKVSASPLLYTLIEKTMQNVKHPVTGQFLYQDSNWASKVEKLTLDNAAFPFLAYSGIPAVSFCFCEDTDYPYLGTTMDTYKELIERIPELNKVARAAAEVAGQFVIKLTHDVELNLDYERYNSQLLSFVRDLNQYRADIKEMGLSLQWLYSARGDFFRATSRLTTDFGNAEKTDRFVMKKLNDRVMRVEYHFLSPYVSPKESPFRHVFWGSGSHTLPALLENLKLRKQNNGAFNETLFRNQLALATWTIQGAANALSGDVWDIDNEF

With T7 peptide, the Kd is 10 nM.
